Measurements from the DeepSol protein solubility set.

Assay: soluble on expression in E. coli; label from the status in PepcDB or PDB records

Soluble on expression in E. coli, not soluble:
MAHHHHHHMEMGGDIVGNIMMLELETFSDEEAAYLTSPDAPHSHIVDEVVEALFENVCTAPRRCSWNTPSVRPEWKEEFRFAGEWWLSMRVLPATVNPNEYHPPLIPFLLRNVQTENQFIADLALHMRQRSSVLSLLHMDHISITPDRASVLLFEGILRNEAQNLECLSLSFCEVGAATLLLILCGLNQCRSIQPQLRYLNLSYNWIDASCSNMMAMLLERTSIRRLSLHGNRFGGSDITSFYDFLLQGCSLLEELDLSYTALTCAEVCALISCLPRMRNLEVLLLDGVEVPDNKAAALSTAIRKSNLIHVSLKGIIACNGEAYLHRIHKACQRNRAARDFLKDRSTLRYFSEGGSFFEAFARRTCEMQRLDDRALPVTYRPFVTNDPSLLPAKNL
MLKVSDLLTLEELPGITLVAGHKNQDQPILKVNILENPDILDWLTAGELLLTTGYIFKDDRKLQKNFLKELAKHHCAALGFKTQRYFEEVPPDLIKLADEMNVPILAIPYNYTFSQIADVLKSRVTLEQFDMNAQETALHNKIYQILETGSSSFHLLQDLAETIQNPVLLLNDHFEGVNFFDLPKNPIRISSILEDRQETSEFQKQLLEQSHPLLRFYQEPIHLQLKLQNQVVPIEIYPIKKKNVILYYLLVWNTLAPLRPVDVAHFKITAHYLLLQLQLEYSRKFEEYQQRNELFFKLFAHEKRDQAVFQQFQQYYRLAIDKPYAILLISLTLNERQRQERMSILGNQLNQVILGDKQKIVCIEIDSSFVLLVENPPEKEGDYLKMMQRLAQSSINQLMKVQEDVELFLTIGPKIQGLTQIHESYQQAIDVLAFQRQFVAEKPEMRIASYSNFHFRQTLQRYFLEEGQATLRKKYLQPLQKSDQQQHTDFVHTLNVYFQSKRNLSQTAKKLFIHRNTLLQRLEKIEQLVLLDFDKEVDLLALEVALFVGT
MGSDKIHHHHHHMAIVRTVLGDITPDQAGSTLTHEHIRYAYPGCELDHRCVWDFDFVAEDVGKQFEEMREGCGIKTVVELTPPEIGRHPELFAQIARRSGMNIVATTGFFPEANAMGIPFHWRRQRKEDVVNMLIRDLTEGMIYDGQKTPYRAGILKAATGSLTAKTRTPVNEKGRRIGNVETHVISAIAAAQREVGCAINTHTQPLDYAVCNPGIELLDELEEGGADPTKVIIGHAFVHPNIDQLKAICERGASVQVDHIGIPWQNDSRAQLDELIAVAMCQLADLGHLDKLVVSYDKFFSHARGPVTEEEPEQLNELVPNDYIMTEFAPRLERKGFGARELHQVMVENPKRLLAF
MKYDLTTQDSTIKRNNSINDKDFEKLVMDLQPLIIRRIKTFGFNHYDLEDLYQEILIRMYRSVQTFDFSGEQPFTNYVQCLITSVKYDYLRKYLATNKRMDNLINEYRVTYPCAIKRFDVENNYLNKLAIKELICQFKYLSAFEKDVMYLMCEQYKPREIAQLMHVKEKVIYNAIQRCKNKIKRYFKMI
MGSDKIHHHHHHMILKYAPLNLDQKFSLVYFRMTHDNCWSKITEKHDVMIHTLKLLPNKDRDIIYGLFELKVKGKRTLRDFLRDLNRSGTIRKLGGLSISELKSNIYIIDLYETYSGMIQGKLNDYNSIFDFDLVKYGVEEKYAVIPSENVNELKNELQSMGQLFDFRAKYFPNFYEVLTPYFNFTPIEMQIIIEAYNLGYYDIPRRAGIREIAEYFGLSKSTVQEYIRNAESKTMSNMKLFRMLNELKRL
MSLTNRSGKDFADEKLLTVLAEVERDLEITYDDLQKQAIIGAMNQQFFILTGGPGTGKTTIINGFIETYARLHQLDLDPDHYNDDVFPILLAAPTGRASRRMNELTGLPAATIHRHLGLGQDEAEDALGNELSGALLIVDEFSMVDTWLANKLFQAIPGSMKVLLVGDADQLPSVGPGQIFADLLKIPEIPSVKLDKIFRQGDDSTITDLAHHIKDGQLPSDFTAKKPDRSYFEVSANFVPQMVEQIASAWQKRGNNPFELQILAPMYKGMAGINAMNVLLQNLFNPLNDRLEFALGDMKFREGDKVLHLVNDAEANVFNGDLGQIVELIAAKYTDSKQDELVMDFDGQELTYPRAEWYKITLAYAMSIHKSQGSEFSTVIVPMVSSYSRMLERNLLYTAITRAKQSLILLGEERAFAQAVAREGANRKTYLIERFMGENEGHHHHHH
MSLTDIHPPLLLIDTSTRVCSVAVAAAGTIISQRVSHVGNSHAANIGVFVQEVLTEAIGLGVKPSIVALSSGPGSYTGLRIGSSIAKGICFGLGIPLVSVPTLELIAEAARPLSQPDWLICPMIDARRMEVYTALFDSKGKALTDTLPLVIDNDSFSEELKKRNILFVGDGAEKCRPFLSHPNAHFSKNVIYPLALYMLHPALSRIETSSYEDVAYWEPFYLKEFVATVAKNKVIPRTQTTEGHHHHHH
MAMDNQGWFSNETATFGDRLAGAREAAGLTQEEMARRLGVRLKTLQSWEDDLAEPRANRLQMMAGMLNVSLRWLLTGEGEGAEGPSEPAILTSEGREALAELARMRTQMLALAQEMGQLEKRMRALLRKEAE
MRKPKITVIGGGTGIPVILNSLRHEEVDITAIVTVADDGGSSGAIRHVMQLTPPGDLRNVLVAMSDMPKFYERIFQYRFNAEDGALAGHPLGNLIIAGISEMQGSTYNAMQILSKFFHTTGKIYPSSEKALTLHAVFQDGQEVVGESQIAKHKGMIDHVYVANSYDDAKPTASRKVVDAIMESDMIVLGPGSLFTSILPNLVIDEIGKALCETEAEVAYVCNIMTQYGETEHFTDADHVRVLNRHLGQNFIDTVLVNVEKVPQDYMNSNQFDEYLIQVEHDFAGLQEQVPRVVSSNFLCLENGGAFHNGKSVVDELMNLIKVKELLEHHHHHH
IAALSRDITPQQDGSVIVDASITIRHLNRMMGWSLPLIGPRTLSGLIIEHLGYIPPPDSCLVIDHYHIEILRVSDNMIRGVKMIKTN
MGSDKIHHHHHHMKTNYRLHMQQGSDYLKKFLEKHIDLLKKIPLFEGIKSDELEEMLECLGVVDKTYPKDSIIFSVGSEVTSIGIMLKGSAHIIKEDIEGNRNIVAELLPGDLFGEVFACTRLHKSNVTVTTTSSCEVLFIKFKSVTGICSSTCVFHNRLVENMLQLIAEKNILLHNKIELLSRKTTREKLLMYFSKQIEQTGSHQFTIPFSRNEMADFLCVDRSSMSRELGKMRDEGLLSFNKNKFEIFYFKK

Soluble on expression in E. coli, soluble:
MSHIIDRRLNGKNKSAVNRERFLRRFKAQIKEAVSKAIKGRSITDIESGEKVSIPVKDISEPSFHHGKGGVWENVHPGNEEFVKGDRIPRPQGGAGGGGSKASQDGEGEDDFVFQLSREEFMNVFFDDLALPNLVKTQLMGIEEMKTVRAGYTNDGTPTNINIVRSPRGALARRVAMAAPTLSSIDEAEEELDTLIESDDDNALEVRDRRQRIHQMKERLASIPWIDPFDLRYNNRVKQPKPTSQAVMFCIMDVSGSMDEQKKDMAKRFFILLYMFLQRNYEKIEVVFIRHHTSAVEVNEQDFFHSRESGGTVVSSALNLMSDVIRKRYASSEWNIYAAQASDGDNWDSDSANCGRILEENLLPYCQYFAYIEITEGEPQNLWYEYLKVKAQCPQFAMQKIRSASDIYPVFRELFKRQPANGRVSALEHHHHHH
MRPARALIDLQALRHNYQLAREVTGAKALAVIKADAYGHGAVRCAQALEAEADGFAVACIEEALELRAAGIRAPILLLEGFFEADELPLIVEHDFWCVVHSLWQLDAIEQARLAKPIHVWLKLDSGMHRVGLHPNDYKAAYQRLQASANVAKIVLMSHFARADELDCTRSVEQVAVFLGARADLTAEISLRNSPAVLGWPRVPSDWVRPGLMLYGSSPFDEPQATASRLQPVMTLESKVICVRELPAGEPVGYGARFITPKPMRIGVVAMGYADGYPRQAPTGTPVFVDGVRSQLLGRVSMDMLCIDLTDVPQAGLGSTVELWGKNILASEVATAADTIPYQIFCNLKRVPRLYSGN
MFSLSFPSSSSALLPSLVAFDSSRRLSLQPKKLNRLQSHLFSPQHLSFSQSNVSRYRAFCVSSSSPPEGTVSVVDFHEKDWSFLESMEIDSTEHTQKIERIIKAGELSESSRVLVSISSETFVDRLVESSPSQLLLIVHDSLFTLACIKEKYDKVKCWQGEMIYVPEKWSPLDAVFLYFLPALPFDLDELFKTLSQRCSSGARVVISHPQGRLGLEQQRKEFSDVVVSDLPDESTLSNVAEKHSFELTQFVDEQGLYLAVLKSSKQ
MQWSKEEEAAARKKVKENSAVRVLLEEQVKYEREASKYWDTFYKIHKNKFFKDRNWLLREFPEILPVDQKPEEKARESSWDHVKTSATNRFSRMHCPTVPDEKNHYEKSSGSSEGQSKTESDFSNLDSEKHKKGPMETGLFPGSNATFRILEVGCGAGNSVFPILNTLENSPESFLYCCDFASGAVELVKSHSSYRATQCFAFVHDVCDDGLPYPFPDGILDVILLVFVLSSIHPDRTLFI
MSLNKVITKKQTIPAFFKGNAPYIFAHRGGMALRPEQTQLAFDYAKQLGVDGFETDVRLTKDQQLIVFHDATVDRTTNGSGKVSAHTLAELKKLDAAYHFKDINGLTPYRGHAHTTILTFDELLKQYPDMYINVDLKDAPESYEGSIAPQIMFDTIAENQAFDRVLVTSFYKEQIVRFNKIAQGSVAIGASQQEVTEAFLKYHLLGGRYYQPLAQTFQMPTHFKGIDLTSSRFIKWLNDMNIIPGYYGVNSIDLMNDLYQKGAHTIVTDRPDLAQQFKQTIPNKEGHHHHHH
MSLKGGEYLETAAKVDVVVVDKTGTLTTGRPELTDVEVIEPAYSQGEVLELAARAETASEHPLADAIIRGAQDRGLSTTLVEAAENITGRGIIANVDGQAVAVGSAELLDHEPDSTRILELNAEGKTAMFVGVNGHAIGIVAVADAVRSDSASAIESLHKAGIQVVMATGDAHRVAQNVASKLGVDEVYSELLPEQKLELVRDLQAAGKTVAMVGDGVNDTPALAAADIGVAMGVAGSPAAIETADIALMADRLPRLAHAVTLAKRTVRTMREGHHHHHH
RPHVVKVYSEDGACRSVEVAAGATARHVCEMLVQRAHALSDETWGLVECHPHLALERGLEDHESVVEVQAAWPVGGDSRFVFRKNFA
MFPVVDDVKAKELGLEVVYNLELPLRPERQIYRNLEDLLPKDVVEKVGRLDIVGDIAIISIPDELMPRKGVIVEAIRKLYPKIKVIARRGFHTGVYRVRRLEVIWGENRLQTIHKENGVLLKIDLSKVFFNPRMKGERYRLAQLIKDGERILIPFAGVLPYALVIARFRKVDIVAVELNDEAVKLAQENVLLNKDKLKGKISIIHGDVFDVLPKLPSFDRVISPTPKGVDALALTLSKAKRFLHYYDFIHEDKLGEFKEKIIKECQKQGKECKVKVRKVADYKPHVYKVCADIEIK
MAHHHHHHMKRPWGESVGTQSNHTRTDGVQEPSASAELAASANDDTQVRSDGRNVRVRSSGSPRTIDTGNGGGSTVVSPQRQLSDQRLPQASSRHELLEGTSEFLLRTEGNIPCSFGNVPKDSIGYESQCCWNLYNNTGTTHYEPPWRTCLAVEKNRENPYYLPWLDSMKIPPLDELLSKVDERKSKAATSGDVDSGTNDSNVKDGSTKHAD
ETDCRWDGCSQEFDSQEQLVHHINSEHIHGERKEFVCHWGGCSRELRPFKAQYMLVVHMRRHTGEKPHKCTFEGCRKSYSRLENLKTHLRSHTGEKPYMCEHEGCSKAFSNASDRAKHQNRTHSNEKPYVCKLPGCTKRYTDPSSLRKHVKTVHG
MRSQRVFTTIDTHTGGNPTRTLISGLPKLIGETMAEKMLHMKKEYDWIRKLLMNEPRGHDVMSGALLTDPCHPEADIGVIYIETGGYLPMCGHDTIGVCTALVESGLIPVVEPITSLKLDTPAGLVEVDIAVQDGKAKEVSFCNIPAFLLKNITVQVKDIGTIEADIAYGGNFYAIIDAKSVGLELIPENASTIIDKAIHIRNTINEKFEIIHPEYSFIRGLTHVEFYTDATHECAHVKNTVIVPPGGIDRSPCGTGTSAKLAVLYAQKEIKIGEEFIHESIVGSLFKGYVVNTTHVENIEAVITKITGSAWLMGMHKFFYNEMDPLKEGFLLIPPMEHETEDIKMAGDPNSLEHHHHHH
